Results from patent US20190330280, “TRANSCRIPTIONAL REGULATORY FUSION POLYPEPTIDE” (Astellas Pharma Inc., published 2019).

Tests used:
Assay in all cases: cell_activity; human T cells, 3.0 nM protein added to medium, 24 h, 37 C
Conditions in all cases: tags: N-terminal GST, NTP cell-penetrating peptide, p300 core fusion
[1] = target: T1, NTP-TALE-TERT-1-p300CD (artificial, UniProt P14727 SEQ:29-906)
T1 chain: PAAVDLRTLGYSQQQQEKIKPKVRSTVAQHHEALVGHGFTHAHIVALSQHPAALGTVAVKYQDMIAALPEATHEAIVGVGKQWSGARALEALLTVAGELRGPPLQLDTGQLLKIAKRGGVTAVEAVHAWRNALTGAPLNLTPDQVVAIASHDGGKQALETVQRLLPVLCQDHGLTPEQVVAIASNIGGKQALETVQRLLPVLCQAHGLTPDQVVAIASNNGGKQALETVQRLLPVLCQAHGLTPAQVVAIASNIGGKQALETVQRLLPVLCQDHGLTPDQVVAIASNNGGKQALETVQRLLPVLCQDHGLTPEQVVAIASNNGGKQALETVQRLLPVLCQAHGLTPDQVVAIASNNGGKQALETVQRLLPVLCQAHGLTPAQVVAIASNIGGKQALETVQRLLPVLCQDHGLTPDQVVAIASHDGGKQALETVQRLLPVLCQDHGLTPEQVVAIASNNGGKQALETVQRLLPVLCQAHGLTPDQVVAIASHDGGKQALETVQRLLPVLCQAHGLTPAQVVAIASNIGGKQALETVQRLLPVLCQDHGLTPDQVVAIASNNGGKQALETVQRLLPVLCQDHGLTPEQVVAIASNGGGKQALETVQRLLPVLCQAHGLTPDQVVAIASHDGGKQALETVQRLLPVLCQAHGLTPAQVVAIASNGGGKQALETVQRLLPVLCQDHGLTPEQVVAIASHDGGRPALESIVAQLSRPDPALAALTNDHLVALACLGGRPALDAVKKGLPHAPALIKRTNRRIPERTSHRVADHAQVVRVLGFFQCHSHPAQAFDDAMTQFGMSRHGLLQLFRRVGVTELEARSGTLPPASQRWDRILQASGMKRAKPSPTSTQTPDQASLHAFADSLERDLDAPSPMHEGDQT
Procedure: (§1) Each NTP-TALE-Activator (NTP-TALE-TERT-1-p300CD, NTP-TALE-TERT-2-p300CD and NTP-TALE-TERT-3-p300CD) targeting human TERT, prepared in Example 1 was dialyzed at 4° C. for 3 hours against OPTI-MEM medium (Thermo Fisher Scientific Inc.) in a microdialysis column (Tomy Seiko Co., Ltd.). The concentrations after purification were 40 nM NTP-TALE-TERT-1-p300CD, 55 nM NTP-TALE-TERT-2-p300CD, and 55 nM NTP-TALE-TERT-3-p300CD. Human T cells (obtained by separation from peripheral mononuclear cells in blood collected from a healthy person) were suspended in 100 μL of KBM550 (Kohjin Bio Co., Ltd.) and seeded in a 96-well plate at 0.5×10⁴ cells/well.
(§2) The obtained human T cells were cultured for 12 hours. Then, each NTP-TALE-Activator dialyzed as mentioned above was added at 3.0 nM (final concentration) to each well (as a result of conducting studies beforehand with a plurality of concentrations, the concentration at which each NTP-TALE-Activator was most responsive was 3.0 nM). Wells to which NTP-TALE-Activator was not added were prepared as a control. The plate was left standing for 24 hours in an incubator at 37° C. and a CO₂ concentration of 5%.

[2] = target: T2, NTP-TALE-TERT-2-p300CD (artificial, UniProt P14727 SEQ:29-906)
T2 chain: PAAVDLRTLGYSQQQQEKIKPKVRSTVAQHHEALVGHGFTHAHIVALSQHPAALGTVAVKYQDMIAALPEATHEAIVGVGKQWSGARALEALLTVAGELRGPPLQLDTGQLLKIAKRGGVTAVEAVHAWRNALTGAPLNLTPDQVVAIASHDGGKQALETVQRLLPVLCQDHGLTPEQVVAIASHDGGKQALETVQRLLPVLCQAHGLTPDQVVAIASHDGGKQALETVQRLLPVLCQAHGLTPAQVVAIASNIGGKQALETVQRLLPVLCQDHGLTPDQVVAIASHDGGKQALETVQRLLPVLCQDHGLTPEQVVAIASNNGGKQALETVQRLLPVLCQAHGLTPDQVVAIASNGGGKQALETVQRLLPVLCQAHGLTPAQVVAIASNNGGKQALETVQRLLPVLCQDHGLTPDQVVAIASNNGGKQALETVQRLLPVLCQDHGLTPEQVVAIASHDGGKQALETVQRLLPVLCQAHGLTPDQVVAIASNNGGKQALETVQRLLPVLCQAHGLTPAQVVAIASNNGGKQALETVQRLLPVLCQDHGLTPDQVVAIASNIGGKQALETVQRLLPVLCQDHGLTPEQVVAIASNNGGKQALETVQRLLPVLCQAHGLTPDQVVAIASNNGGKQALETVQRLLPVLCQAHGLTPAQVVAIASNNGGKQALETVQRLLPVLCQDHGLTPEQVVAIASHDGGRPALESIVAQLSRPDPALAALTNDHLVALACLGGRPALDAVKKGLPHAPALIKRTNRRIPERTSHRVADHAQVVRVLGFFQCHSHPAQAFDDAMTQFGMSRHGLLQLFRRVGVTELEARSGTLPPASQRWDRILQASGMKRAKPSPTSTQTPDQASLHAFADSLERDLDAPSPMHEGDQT
Procedure: as §1, §2

[3] = target: T3, NTP-TALE-TERT-3-p300CD (artificial, UniProt P14727 SEQ:29-906)
T3 chain: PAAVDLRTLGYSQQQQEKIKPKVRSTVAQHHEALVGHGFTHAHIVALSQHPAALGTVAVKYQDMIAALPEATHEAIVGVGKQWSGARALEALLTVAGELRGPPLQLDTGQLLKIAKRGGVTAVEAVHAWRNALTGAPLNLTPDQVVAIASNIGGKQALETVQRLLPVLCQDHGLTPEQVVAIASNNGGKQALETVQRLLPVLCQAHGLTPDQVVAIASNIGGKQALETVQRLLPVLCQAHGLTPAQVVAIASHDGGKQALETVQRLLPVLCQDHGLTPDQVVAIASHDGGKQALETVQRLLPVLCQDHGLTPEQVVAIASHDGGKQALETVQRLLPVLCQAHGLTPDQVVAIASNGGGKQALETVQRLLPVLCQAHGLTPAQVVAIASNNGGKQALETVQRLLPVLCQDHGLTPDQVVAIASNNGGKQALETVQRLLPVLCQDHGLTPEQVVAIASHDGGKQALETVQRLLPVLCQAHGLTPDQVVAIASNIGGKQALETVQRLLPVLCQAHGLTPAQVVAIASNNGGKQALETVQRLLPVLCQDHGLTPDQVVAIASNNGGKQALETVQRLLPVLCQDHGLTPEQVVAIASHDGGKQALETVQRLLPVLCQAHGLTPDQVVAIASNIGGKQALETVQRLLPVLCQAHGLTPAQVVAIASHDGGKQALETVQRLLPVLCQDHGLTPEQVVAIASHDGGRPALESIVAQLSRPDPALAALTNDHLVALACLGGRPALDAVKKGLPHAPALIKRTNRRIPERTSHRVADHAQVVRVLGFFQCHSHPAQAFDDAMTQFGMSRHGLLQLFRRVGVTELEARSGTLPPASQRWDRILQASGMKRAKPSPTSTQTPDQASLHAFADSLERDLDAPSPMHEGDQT
Procedure: as §1, §2

B1: human TERT enhancer target (AH007699.2 nt 49444-49461) (dsDNA)
DNA 1: TCAGAGGGACGCAGTCTT
DNA 2: AAGACTGCGTCCCTCTGA
[1]
  activity: ~17 fold TERT mRNA

B2: human TERT promoter target (AH007699.2 nt 11029-11046) (dsDNA)
DNA 1: CCCCACGTGGCGGAGGGA
DNA 2: TCCCTCCGCCACGTGGGG
[2]
  activity: ~3.5 fold TERT mRNA

B3: human TERT enhancer target (AH007699.2 nt 6501-6518) (dsDNA)
DNA 1: TAGACCCTGGCAGGCACT
DNA 2: AGTGCCTGCCAGGGTCTA
[3]
  activity: ~2 fold TERT mRNA
